From patent US20260151519A1 (AKTIS ONCOLOGY, published 2026)
Primed or numbered codes have the meaning given here. Where no end group is shown, it is not given here. [ ]: non-standard residue; d: D form. The star is where a group is joined. Biotin = O=C1N[C@H]2[C@H](CS[C@H]2CCCCC(=O)*)N1; Lys(Me3) = C[N+](C)(C)CCCC[C@H](N)C(=O)O; PEG4′ = not defined here

Key:
Test in all cases: cell microarray on HEK293 cells
[1] = biological target: T1, IGF1 (human, UniProt P05019 49-118)
T1 construct: whole, on cells; Secreted targets were tethered to the plasma membrane
Method: (§1) Initially, two pools of compounds were tested. […] To perform this assay, HEK293 cells were plated on a dish and localized spots of cells were transiently over-expressed with a single cDNA encoding for GFP and one of the 6,416 targets. Included in this library were multiple clones for the Nectin family members, including plasma membrane, non-tethered secreted, and tethered secreted forms of Nectin-1, 2, 3, and 4. Secreted protein targets were tethered to the plasma membrane to aid in detection. The molecule pools were incubated on the fixed, over-expressing cell microarrays (n=2 per protein), and binding was visualized using Alexa Fluor 647 streptavidin fluorescence.

[2] = biological target: T2, TRPV4 (human, UniProt Q9HBA0 1-871)
T2 construct: whole, on cells
Method: as §1

[3] = biological target: T3, EGF (human, UniProt P01133 23-1207)
T3 construct: whole, on cells
Method: as §1

[4] = biological target: T4, GLP2R (human, UniProt O95838 1-553)
T4 construct: whole, on cells
T4 sequence (looked up): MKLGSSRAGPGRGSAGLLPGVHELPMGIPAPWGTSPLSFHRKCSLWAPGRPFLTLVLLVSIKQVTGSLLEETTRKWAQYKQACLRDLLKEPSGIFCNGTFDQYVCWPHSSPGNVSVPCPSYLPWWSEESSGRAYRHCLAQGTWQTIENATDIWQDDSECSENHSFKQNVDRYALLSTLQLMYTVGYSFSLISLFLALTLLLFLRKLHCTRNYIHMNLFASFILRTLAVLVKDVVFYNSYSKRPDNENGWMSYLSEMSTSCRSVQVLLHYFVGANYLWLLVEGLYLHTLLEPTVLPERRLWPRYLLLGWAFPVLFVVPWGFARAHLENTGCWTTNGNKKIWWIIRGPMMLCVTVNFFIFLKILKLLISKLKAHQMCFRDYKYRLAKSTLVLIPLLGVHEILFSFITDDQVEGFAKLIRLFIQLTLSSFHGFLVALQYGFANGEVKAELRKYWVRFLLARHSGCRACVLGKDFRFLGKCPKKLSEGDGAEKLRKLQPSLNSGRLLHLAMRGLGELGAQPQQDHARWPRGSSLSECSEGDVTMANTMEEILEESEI
Method: as §1

[5] = biological target: T5, IGFBP5 (human, UniProt P24593 21-272)
T5 construct: whole, on cells; Secreted targets were tethered to the plasma membrane
Method: as §1

[6] = biological target: T6, PAPPA (human, UniProt Q13219 82-1627)
T6 construct: whole, on cells; Secreted targets were tethered to the plasma membrane
Method: as §1

[7] = biological target: T7, IGFBP3 (human, UniProt P17936 28-291)
T7 construct: whole, on cells; Secreted targets were tethered to the plasma membrane
Method: as §1

[8] = biological target: T8, TRPV5 (human, UniProt Q9NQA5 1-729)
T8 construct: whole, on cells
Method: as §1

[9] = biological target: T9, SPNS2 (human, UniProt Q8IVW8 1-549)
T9 construct: whole, on cells
T9 sequence (looked up): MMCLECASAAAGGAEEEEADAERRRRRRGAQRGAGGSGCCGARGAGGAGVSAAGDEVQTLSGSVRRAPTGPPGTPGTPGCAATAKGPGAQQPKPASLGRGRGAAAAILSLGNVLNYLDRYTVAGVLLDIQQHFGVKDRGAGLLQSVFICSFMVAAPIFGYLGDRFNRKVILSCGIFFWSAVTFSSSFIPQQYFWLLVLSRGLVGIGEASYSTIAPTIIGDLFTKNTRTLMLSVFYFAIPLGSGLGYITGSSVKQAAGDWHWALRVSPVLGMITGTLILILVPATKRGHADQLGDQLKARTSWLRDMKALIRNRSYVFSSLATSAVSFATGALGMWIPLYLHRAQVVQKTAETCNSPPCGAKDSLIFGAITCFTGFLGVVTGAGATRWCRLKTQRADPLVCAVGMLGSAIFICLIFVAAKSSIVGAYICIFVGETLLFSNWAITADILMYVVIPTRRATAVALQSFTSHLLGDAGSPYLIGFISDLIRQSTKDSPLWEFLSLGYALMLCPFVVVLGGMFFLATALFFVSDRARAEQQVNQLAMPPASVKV
Method: as §1

[10] = biological target: T10, SLC22A23 (human, UniProt A1A5C7 1-686)
T10 construct: whole, on cells
T10 sequence (looked up): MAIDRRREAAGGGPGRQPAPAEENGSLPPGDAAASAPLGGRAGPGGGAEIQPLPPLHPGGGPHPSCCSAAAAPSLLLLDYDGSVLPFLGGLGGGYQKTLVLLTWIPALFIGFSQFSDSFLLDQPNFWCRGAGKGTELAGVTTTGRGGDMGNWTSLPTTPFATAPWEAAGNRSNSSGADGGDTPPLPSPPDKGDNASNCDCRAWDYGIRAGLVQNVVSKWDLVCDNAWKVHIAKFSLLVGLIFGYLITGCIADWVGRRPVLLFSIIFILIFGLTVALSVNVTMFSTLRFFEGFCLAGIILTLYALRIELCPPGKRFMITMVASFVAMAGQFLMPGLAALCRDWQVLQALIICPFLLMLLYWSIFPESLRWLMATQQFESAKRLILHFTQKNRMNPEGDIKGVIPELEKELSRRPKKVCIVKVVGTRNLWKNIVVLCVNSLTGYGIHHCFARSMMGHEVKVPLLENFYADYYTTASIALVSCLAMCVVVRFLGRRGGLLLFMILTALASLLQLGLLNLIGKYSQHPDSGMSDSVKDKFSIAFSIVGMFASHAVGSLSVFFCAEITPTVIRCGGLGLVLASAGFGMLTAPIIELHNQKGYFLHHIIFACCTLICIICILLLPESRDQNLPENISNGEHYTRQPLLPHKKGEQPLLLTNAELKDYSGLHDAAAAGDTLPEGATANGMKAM
Method: as §1

[11] = biological target: T11, IGF2 (human, UniProt P01344 25-91)
T11 construct: whole, on cells; Secreted targets were tethered to the plasma membrane
Method: as §1

[12] = biological target: T12, EDN2 (human, UniProt P20800 49-69)
T12 construct: whole, on cells; Secreted targets were tethered to the plasma membrane
T12 chain (looked up): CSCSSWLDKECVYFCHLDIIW
Method: as §1

[13] = biological target: T13, CXCL12 (human, UniProt P48061 22-93)
T13 construct: whole, on cells; Secreted targets were tethered to the plasma membrane
Method: as §1

Measured: binding result

T1 sequence (P05019 49-118): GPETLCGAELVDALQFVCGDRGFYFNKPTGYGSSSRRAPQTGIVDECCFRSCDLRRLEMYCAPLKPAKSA
T13 sequence (P48061 22-93): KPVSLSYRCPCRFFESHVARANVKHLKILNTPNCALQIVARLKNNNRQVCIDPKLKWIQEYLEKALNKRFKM
T5 sequence (P24593 21-272): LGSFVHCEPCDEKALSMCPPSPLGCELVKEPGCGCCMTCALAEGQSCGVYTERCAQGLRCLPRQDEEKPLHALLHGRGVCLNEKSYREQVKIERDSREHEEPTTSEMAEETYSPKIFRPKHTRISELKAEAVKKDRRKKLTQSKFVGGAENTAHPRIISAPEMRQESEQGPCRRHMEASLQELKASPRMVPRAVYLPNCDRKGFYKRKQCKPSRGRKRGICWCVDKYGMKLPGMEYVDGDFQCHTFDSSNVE
T7 sequence (P17936 28-291): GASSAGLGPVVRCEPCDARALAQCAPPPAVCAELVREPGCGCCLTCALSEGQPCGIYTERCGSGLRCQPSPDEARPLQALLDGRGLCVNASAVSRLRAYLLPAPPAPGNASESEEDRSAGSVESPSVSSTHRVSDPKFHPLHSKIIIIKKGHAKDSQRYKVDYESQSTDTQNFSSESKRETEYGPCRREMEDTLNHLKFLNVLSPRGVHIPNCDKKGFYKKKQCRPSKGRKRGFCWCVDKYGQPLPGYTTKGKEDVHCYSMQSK
T2 sequence (Q9HBA0 whole entry): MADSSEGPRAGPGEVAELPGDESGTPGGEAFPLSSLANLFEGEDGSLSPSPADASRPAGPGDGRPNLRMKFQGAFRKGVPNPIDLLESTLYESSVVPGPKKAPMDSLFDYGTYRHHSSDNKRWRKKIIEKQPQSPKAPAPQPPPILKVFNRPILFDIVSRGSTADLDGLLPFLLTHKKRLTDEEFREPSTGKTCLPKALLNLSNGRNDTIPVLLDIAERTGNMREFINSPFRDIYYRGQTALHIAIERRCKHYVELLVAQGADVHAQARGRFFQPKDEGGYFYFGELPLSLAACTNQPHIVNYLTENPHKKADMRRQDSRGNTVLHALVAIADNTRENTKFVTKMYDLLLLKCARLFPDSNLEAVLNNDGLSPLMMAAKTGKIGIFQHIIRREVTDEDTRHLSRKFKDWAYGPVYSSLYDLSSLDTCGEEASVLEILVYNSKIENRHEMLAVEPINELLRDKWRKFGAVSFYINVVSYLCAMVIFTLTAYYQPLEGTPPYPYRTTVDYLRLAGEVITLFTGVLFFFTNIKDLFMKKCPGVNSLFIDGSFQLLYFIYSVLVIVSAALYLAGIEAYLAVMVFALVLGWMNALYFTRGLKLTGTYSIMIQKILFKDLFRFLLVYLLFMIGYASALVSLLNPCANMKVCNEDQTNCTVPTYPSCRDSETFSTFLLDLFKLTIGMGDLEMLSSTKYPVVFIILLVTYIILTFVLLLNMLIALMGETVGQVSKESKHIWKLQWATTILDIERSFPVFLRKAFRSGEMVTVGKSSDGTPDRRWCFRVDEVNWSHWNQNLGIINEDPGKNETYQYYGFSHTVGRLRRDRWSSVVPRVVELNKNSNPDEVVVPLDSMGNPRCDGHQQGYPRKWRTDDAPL
T11 sequence (P01344 25-91): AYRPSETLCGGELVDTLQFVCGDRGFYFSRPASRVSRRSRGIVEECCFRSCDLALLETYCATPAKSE
T6 sequence (Q13219 82-1627): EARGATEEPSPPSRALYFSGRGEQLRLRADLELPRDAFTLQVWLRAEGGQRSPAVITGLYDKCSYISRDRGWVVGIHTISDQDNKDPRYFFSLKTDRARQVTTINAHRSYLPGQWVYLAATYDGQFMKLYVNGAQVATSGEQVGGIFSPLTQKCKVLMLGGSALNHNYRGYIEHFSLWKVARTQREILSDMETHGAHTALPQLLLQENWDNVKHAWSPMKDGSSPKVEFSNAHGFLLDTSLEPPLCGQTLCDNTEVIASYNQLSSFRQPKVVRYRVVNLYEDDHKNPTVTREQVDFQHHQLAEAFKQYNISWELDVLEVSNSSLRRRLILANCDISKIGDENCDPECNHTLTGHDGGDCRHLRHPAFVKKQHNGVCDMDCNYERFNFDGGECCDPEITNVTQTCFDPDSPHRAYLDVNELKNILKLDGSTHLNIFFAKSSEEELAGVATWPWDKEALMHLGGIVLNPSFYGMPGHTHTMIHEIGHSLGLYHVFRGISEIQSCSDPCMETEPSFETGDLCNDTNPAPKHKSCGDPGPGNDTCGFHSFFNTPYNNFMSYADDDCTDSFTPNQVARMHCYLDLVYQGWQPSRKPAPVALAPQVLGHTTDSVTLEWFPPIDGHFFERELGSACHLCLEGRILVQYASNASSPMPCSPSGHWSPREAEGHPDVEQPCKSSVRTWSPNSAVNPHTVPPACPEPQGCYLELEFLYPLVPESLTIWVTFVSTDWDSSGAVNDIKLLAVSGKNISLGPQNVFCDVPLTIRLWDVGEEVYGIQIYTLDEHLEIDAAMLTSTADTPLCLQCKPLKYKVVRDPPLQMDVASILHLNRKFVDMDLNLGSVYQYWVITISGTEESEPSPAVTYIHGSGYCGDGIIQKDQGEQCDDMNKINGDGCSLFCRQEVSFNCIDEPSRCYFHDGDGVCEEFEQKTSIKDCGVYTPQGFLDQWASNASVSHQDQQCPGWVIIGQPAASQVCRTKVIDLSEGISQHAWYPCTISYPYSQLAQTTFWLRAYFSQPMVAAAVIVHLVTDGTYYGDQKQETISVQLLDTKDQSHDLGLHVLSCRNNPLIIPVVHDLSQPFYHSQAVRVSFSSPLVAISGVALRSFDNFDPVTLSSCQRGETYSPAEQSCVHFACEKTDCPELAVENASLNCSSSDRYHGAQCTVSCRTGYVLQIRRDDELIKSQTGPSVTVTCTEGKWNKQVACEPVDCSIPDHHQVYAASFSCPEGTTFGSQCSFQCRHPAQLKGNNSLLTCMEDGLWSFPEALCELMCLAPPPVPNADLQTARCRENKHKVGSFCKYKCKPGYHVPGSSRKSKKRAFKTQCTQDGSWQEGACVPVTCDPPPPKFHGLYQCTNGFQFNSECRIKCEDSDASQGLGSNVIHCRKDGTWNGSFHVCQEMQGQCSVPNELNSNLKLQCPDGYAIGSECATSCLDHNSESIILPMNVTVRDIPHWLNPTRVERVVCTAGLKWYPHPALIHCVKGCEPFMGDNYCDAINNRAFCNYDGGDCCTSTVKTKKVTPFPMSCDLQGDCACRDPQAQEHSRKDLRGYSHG
T3 sequence (P01133 23-1207): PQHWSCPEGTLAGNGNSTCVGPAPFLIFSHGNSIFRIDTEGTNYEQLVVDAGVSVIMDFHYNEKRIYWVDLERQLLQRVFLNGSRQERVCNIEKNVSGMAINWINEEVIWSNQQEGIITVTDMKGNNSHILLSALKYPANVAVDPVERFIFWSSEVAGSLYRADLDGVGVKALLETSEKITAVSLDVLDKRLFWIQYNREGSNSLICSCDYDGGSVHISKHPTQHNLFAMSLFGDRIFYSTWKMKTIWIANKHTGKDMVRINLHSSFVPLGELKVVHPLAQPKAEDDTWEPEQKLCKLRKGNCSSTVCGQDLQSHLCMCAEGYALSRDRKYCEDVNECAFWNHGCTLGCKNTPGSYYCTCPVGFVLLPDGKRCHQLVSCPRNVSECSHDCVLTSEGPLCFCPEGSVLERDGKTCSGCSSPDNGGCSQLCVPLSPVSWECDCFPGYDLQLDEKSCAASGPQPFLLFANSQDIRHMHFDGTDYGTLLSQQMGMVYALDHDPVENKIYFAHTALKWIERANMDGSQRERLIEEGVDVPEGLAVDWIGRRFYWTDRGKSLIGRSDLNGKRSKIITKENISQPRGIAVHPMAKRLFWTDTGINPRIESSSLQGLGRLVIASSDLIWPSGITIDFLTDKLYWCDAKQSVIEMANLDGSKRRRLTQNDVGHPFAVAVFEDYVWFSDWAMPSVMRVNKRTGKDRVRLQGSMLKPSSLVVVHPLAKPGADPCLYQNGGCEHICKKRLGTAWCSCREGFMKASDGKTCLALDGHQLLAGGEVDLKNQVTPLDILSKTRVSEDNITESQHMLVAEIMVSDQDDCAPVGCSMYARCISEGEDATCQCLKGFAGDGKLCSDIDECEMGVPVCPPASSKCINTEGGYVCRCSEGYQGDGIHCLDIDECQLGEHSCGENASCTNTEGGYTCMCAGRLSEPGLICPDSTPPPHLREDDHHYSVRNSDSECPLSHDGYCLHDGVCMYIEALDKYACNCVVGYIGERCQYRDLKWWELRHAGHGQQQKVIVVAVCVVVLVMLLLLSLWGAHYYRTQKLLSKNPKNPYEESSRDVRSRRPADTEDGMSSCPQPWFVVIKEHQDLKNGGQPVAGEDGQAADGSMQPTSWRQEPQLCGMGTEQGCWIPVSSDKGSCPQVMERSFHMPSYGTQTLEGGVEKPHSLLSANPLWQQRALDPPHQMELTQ

{Biotin-PEG4′}-CEYDEEFFTALARLRGGDICQYIQA[Lys(Me3)]FQYLPALCIEEILDNLGCS (designed binder, cysteine pairing not given here) [C253]
no binding (tested: 2 µg/mL): all assays above

{Biotin-PEG4′}-CDYDEQFFTALKRLRGADICEYIQASFQYLPGECIEEILDNLGCS (designed binder, cysteine pairing not given here) [C208]
no binding (tested: 2 µg/mL): all assays above

{Biotin-PEG4′}-CDYDEQFFTALKRLRGGDICEYIQASFQYLPGLCIEEILDNLGCS (designed binder, cysteine pairing not given here) [C190]
no binding (tested: 2 µg/mL): all assays above

{Biotin-PEG4′}-CEYDEQFFTALKRLRGDDICDYIQASFQYLPGLCIEEILDNLGCS (designed binder, cysteine pairing not given here) [C197]
no binding (tested: 2 µg/mL): all assays above

{Biotin-PEG4′}-CDYDEQFFTALARLRGADICEYIQASFQYLPGECIEEILDNLGCS (designed binder, cysteine pairing not given here) [C247]
no binding (tested: 2 µg/mL): all assays above
